The text below walks through data of article PMC1891329.

This test concerns the target full-length MglA (residues 1–205) fused to Zif or to the ω subunit of E. coli RNAP (F. tularensis subspecies holarctica LVS). Description: two-hybrid.

Substance “full-length F. tularensis LVS SspA (residues 1–210) fused to the ω subunit of E. coli RNAP or to Zif (natural protein)” displayed a fold activation of the lacZ reporter of 22 fold.
